Test results reported in paper PMC6101544.

Target: DNA polymerase beta (pol beta), [13CH3-Met,13CH3-Ile] labelled (UniProt P06746 1-335)
Assay: NMR 1H-13C HMQC chemical shift perturbation, methyl-TROSY CPMG; binary complex; 5 mM MgCl2; ~175 uM pol beta, 10% excess DNA; D2O buffer: 50 mM Tris-d11 pH 7.6, 150 mM KCl, 5 mM MgCl2 (none for apoenzyme), 1 mM CDTA, 1 mM DTT, 0.1 mM AEBSF, 0.04% NaN3, 50 uM DSS; 35 C for assignment of

Binder: GGCGAAGCCTGGTGCGAAGCACC (structured_DNA) [1-nt-gapped double hairpin DNA (templating dT in gap)]
- binding result: binds
